In patent US10202593B2, “Evolved sortases and uses thereof” (President and Fellows of Harvard College, priority 2013, dated 2019):
Read-outs that look alike come from different tables or passages of the source.

System: LPEAG
Assay: In vitro sortase kinetics HPLC assay, LPEAG substrate
Type: biochemical
Experimental: See below for details on sortase expression and purification, and on the synthesis of Abz-LPETGK(Dnp)-CONH2 (SEQ ID NO: 19). […] Reactions were initiated with the addition of enzyme and incubated at 22.5° C. for 3 to 20 minutes before quenching with 0.5 volumes of 1 M HCl. Five to ten nmol of peptide from the quenched reactions were injected onto an analytical reverse-phase Eclipse XDB-C18 HPLC column (4.6×150 mm, 5 μm, Agilent Technologies) and chromatographed using a gradient of 10 to 65% acetonitrile with 0.1% TFA in 0.1% aqueous TFA over 13 minutes. Retention times under these conditions for the Abz-LPETGK(Dnp)-CONH2 (SEQ ID NO: 19) substrate, the released GKDnp peptide, and the Abz-LPETGGG-COOH (SEQ ID NO: 20) product were 12.8, 10.4, and 9.1 min, respectively. To calculate the percent conversion, the ratio of the integrated areas of the Abz-LPETGGG-COOH (SEQ ID NO: 20) and Abz-LPETGK(Dnp)-CONH2 (SEQ ID NO: 19) peptide Abs220 peaks was compared to a standard curve generated by mixing the product and starting peptide in known ratios. To determine […] and Km, reaction rates were fit to the Michaelis-Menten equation using OriginPro 7.0 software. All kinetics values reported represent the average of at least three measurements. Percent conversion was also calculated by using the ratio of the integrated areas of the GK(Dnp)-CONH2 and Abz-LPETGK(Dnp)-CONH2 peptide Abs355 peaks were compared directly (Example 5). To determine kcat and Km, LPETG, reaction rates were fit to the Michaelis-Menten equation using Microsoft Excel using the Solver add-in. To determine Km,GGG and KH, reaction rates were fit to the modified Michaelis-Menten, for which KH is as defined when KH<<Km,GGG.
Assays to determine eSrtA, eSrtA(2A-9) and eSrtA(4S-9) specificity were performed by preparing 10 μM stocks of Abz-LXEXGK(Dnp) (SEQ ID NO: 75) peptides in 300 mM Tris pH 7.5, 150 mM NaCl, 5 mM CaCl2, 5% v/v DMSO, and 100 mM Gly-Gly-Gly-COOH (GGG). Reactions were performed by adding eSrtA(2A-9) to a final concentration of 450 nM, eSrtA(4S-9) to a final concentration of 115 nM or eSrtA to a final concentration of 47.5 nM and a final volume of 100 μL, then incubating at 22.5° C. for 15 minutes. Reactions were quenched by the addition of 0.2 volumes of 5 M HCl, then were injected onto an analytical reverse-phase Eclipse XDB-C18 HPLC column (4.6×150 mm, 5 μm, Agilent Technologies) and chromatographed using a gradient of 10 to 65% acetonitrile with 0.1% TFA in 0.1% aqueous TFA over 13 minutes. Retention times under these conditions for the Abz-LPETGK(Dnp)-CONH2 (SEQ ID NO: 19) substrate, the released GKDnp peptide, and the Abz-LPETGGG-COOH (SEQ ID NO: 20) product were 12.8, 10.4, and 9.1 min, respectively, while the remaining Abz-LXEXGK(Dnp)-CONH2 (SEQ ID NO: 74) substrates varied in retention time between 9 and 13 minutes. To calculate the percent conversion, the ratio of the integrated areas of the GK(Dnp)-CONH2 and Abz-LPETGK(Dnp)-CONH2 (SEQ ID NO: 19) peptide Abs355 peaks were compared directly. Subsequent determination of kcat/Km and KH were performed as described for in vitro SrtA characterization.
The original pentamutant comprising the mutations P94R, D160N, D165A, K190E, and K196T is referred to as eSrtA. Sortase variants herein were evolved using eSrtA as the parent enzyme in the evolution experiments. In some cases, an evolved sortase comprises a N160K mutation instead of a D160N or a T196S mutation instead of a K196T. Parameters are reported with their standard deviations as determined from three technical replicates. kcat, Km and kcat/Km parameters were determined at 100 mM GGG concentration, while Km,GGG and KH parameters were determined at 1 mM concentration of the listed substrate.

[1] = Sub LPEAG, 100 mM GGG, read-out: Km

Molecule	KH (1 mM LPEAG)	Km (1 mM LPEAG, read-out: Km,GGG)	Kcat (Hz) (Sub LPEAG, 100 mM GGG)	Km [1]
eSrtA (protein) QAKPQIPKDKSKVAGYIEIPDADIKEPVYPGPATREQLNRGVSFAEENESLDDQNISIAGHTFIDRPNYQFTNLKAAKKGSMVYFKVGNETRKYKMTSIRNVKPTAVEVLDEQKGKDKQLTLITCDDYNEETGVWETRKIFVATEVK	599 ± 41 µM	48.4 ± 3.1 mM	0.74 ± 0.04 Hz	0.0834 ± 0.0006 mM
eSrtA(4S-9): P94R, N98D, S102C, A104V, A118T, F122A, K134R, F144L, D160N, D165A, I182V, E189F, K190E, K196T (protein) QAKPQIPKDKSKVAGYIEIPDADIKEPVYPGPATREQLDRGVCFVEENESLDDQNISITGHTAIDRPNYQFTNLRAAKKGSMVYLKVGNETRKYKMTSIRNVKPTAVEVLDEQKGKDKQLTLVTCDDYNFETGVWETRKIFVATEVK	193 ± 30 µM	41 ± 4 mM	1.90 ± 0.01 Hz	0.154 ± 0.003 mM
